Test system: Escherichia coli TOP10
Experiment: shrunken log2 fold change of peptide-encoding DNA abundance (4.5 h post-induction vs induction); higher = less antimicrobial activity (less host growth inhibition)
Conditions: time post-induction: 4.5 h; library: site-saturation at positions 5, 18, 19, 20
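Note: peptides expressed intracellularly from a pBAD plasmid library in pooled LB shake-flask culture, induced with 0.3% L-arabinose, DNA abundance read by NGS, three biological replicates, DESeq2 with apeglm shrinkage.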

Sequence | shrunken log2 fold change
RRIRSRPPRLPRPRPRPSQRPRP | -0.0585
RRIRARPPRLPRPRPRPNRKPRP | 0.131
RRIRWRPPRLPRPRPRPNHAPRP | 0.601
RRIRMRPPRLPRPRPRPGQAPRP | 0.34
RRIRTRPPRLPRPRPRPAINPRP | 0.0461
RRIRARPPRLPRPRPRPVPWPRP | 0.452
RRIRLRPPRLPRPRPRPILVPRP | -0.157
RRIRLRPPRLPRPRPRPHPAPRP | 0.12
RRIRHRPPRLPRPRPRPMPLPRP | -0.0217
RRIRRRPPRLPRPRPRPFDGPRP | 0.079
RRIRKRPPRLPRPRPRPNTKPRP | -0.391
RRIRKRPPRLPRPRPRPWWYPRP | -0.127
RRIRMRPPRLPRPRPRPFARPRP | 0.412
RRIRYRPPRLPRPRPRPWIAPRP | -0.791
RRIRFRPPRLPRPRPRPDIPPRP | -0.634
RRIRGRPPRLPRPRPRPVHYPRP | 0.109
RRIRTRPPRLPRPRPRPIFVPRP | 0.144
RRIRYRPPRLPRPRPRPPQAPRP | 0.114
RRIRNRPPRLPRPRPRPKEVPRP | 0.0999
RRIRMRPPRLPRPRPRPQDWPRP | 0.00698
RRIRTRPPRLPRPRPRPNQNPRP | -0.168
RRIRGRPPRLPRPRPRPELLPRP | 0.334
RRIRLRPPRLPRPRPRPVREPRP | 0.185
RRIRARPPRLPRPRPRPWPRPRP | 0.992
RRIRFRPPRLPRPRPRPRRMPRP | 0.397

Sequence | shrunken log2 fold change
RRIRNRPPRLPRPRPRPRTGPRP | -0.0238
RRIRARPPRLPRPRPRPCGDPRP | -0.239
RRIRCRPPRLPRPRPRPMIQPRP | -0.417
RRIRMRPPRLPRPRPRPHYLPRP | 0.106
RRIRKRPPRLPRPRPRPSYLPRP | -0.144
RRIRMRPPRLPRPRPRPRIMPRP | 0.049
RRIRQRPPRLPRPRPRPLGCPRP | -0.0282
RRIRIRPPRLPRPRPRPLEFPRP | -0.196
RRIRCRPPRLPRPRPRPHCHPRP | -0.475
RRIRMRPPRLPRPRPRPMVSPRP | 0.0423
RRIRYRPPRLPRPRPRPFTNPRP | 0.0209
RRIRDRPPRLPRPRPRPIMAPRP | -0.00298
RRIRIRPPRLPRPRPRPENEPRP | -0.428
RRIRWRPPRLPRPRPRPAIRPRP | 0.639
RRIRHRPPRLPRPRPRPIRYPRP | 0.0301
RRIRHRPPRLPRPRPRPICSPRP | 0.0153
RRIRGRPPRLPRPRPRPFGWPRP | 0.741
RRIRMRPPRLPRPRPRPMNTPRP | 0.206
RRIRCRPPRLPRPRPRPWTRPRP | 0.0156
RRIRMRPPRLPRPRPRPFWFPRP | 0.132
RRIRFRPPRLPRPRPRPFDWPRP | 0.109
RRIRDRPPRLPRPRPRPWRHPRP | 0.0719
RRIRHRPPRLPRPRPRPEIKPRP | -0.264
RRIRLRPPRLPRPRPRPSQNPRP | -0.278
RRIRPRPPRLPRPRPRPMKFPRP | -0.248

Sequence | shrunken log2 fold change
RRIRCRPPRLPRPRPRPGNKPRP | -0.223
RRIRSRPPRLPRPRPRPFNCPRP | -0.441
RRIRRRPPRLPRPRPRPRGPPRP | 0.871
RRIRFRPPRLPRPRPRPVTPPRP | 0.241
RRIRNRPPRLPRPRPRPIGYPRP | 0.103
RRIRSRPPRLPRPRPRPLMTPRP | 0.653
RRIRDRPPRLPRPRPRPQLWPRP | 0.92
RRIRCRPPRLPRPRPRPPILPRP | -0.501
RRIRMRPPRLPRPRPRPMCTPRP | -0.0175
RRIRIRPPRLPRPRPRPLWNPRP | -0.598
RRIRSRPPRLPRPRPRPTNQPRP | -0.311
RRIRTRPPRLPRPRPRPYSVPRP | -0.027
RRIRDRPPRLPRPRPRPMNYPRP | 0.185
RRIRSRPPRLPRPRPRPWRGPRP | 0.59
RRIRKRPPRLPRPRPRPVHTPRP | 0.00666
RRIRIRPPRLPRPRPRPQQPPRP | 0.349
RRIRVRPPRLPRPRPRPAGLPRP | 0.192
RRIRTRPPRLPRPRPRPQTIPRP | -0.717
RRIRMRPPRLPRPRPRPMERPRP | -0.0334
RRIRFRPPRLPRPRPRPFLIPRP | -0.304
RRIRDRPPRLPRPRPRPMVHPRP | 0.234
RRIRRRPPRLPRPRPRPLGSPRP | 0.0898
RRIRWRPPRLPRPRPRPIVCPRP | 0.0105
RRIRDRPPRLPRPRPRPSRLPRP | 0.0232
RRIRGRPPRLPRPRPRPFFEPRP | 0.428

Sequence | shrunken log2 fold change
RRIRDRPPRLPRPRPRPYDFPRP | -0.178
RRIRLRPPRLPRPRPRPNKSPRP | -0.354
RRIRERPPRLPRPRPRPGMYPRP | -0.0383
RRIRDRPPRLPRPRPRPFNVPRP | -0.00548
RRIRNRPPRLPRPRPRPFDAPRP | -0.106
RRIRFRPPRLPRPRPRPRYKPRP | -0.311
RRIRIRPPRLPRPRPRPVWRPRP | 0.391
RRIRYRPPRLPRPRPRPRVTPRP | -0.286
RRIRMRPPRLPRPRPRPHGIPRP | 0.0295
RRIRIRPPRLPRPRPRPSRAPRP | -0.212
RRIRRRPPRLPRPRPRPETMPRP | -0.0309
RRIRYRPPRLPRPRPRPLHNPRP | -0.507
RRIRSRPPRLPRPRPRPFNRPRP | -0.363
RRIRVRPPRLPRPRPRPITEPRP | -0.0116
RRIRPRPPRLPRPRPRPFPNPRP | -0.0765
RRIRLRPPRLPRPRPRPDQWPRP | -0.158
RRIRWRPPRLPRPRPRPFRNPRP | -0.209
RRIRPRPPRLPRPRPRPCKTPRP | 0.106
RRIRERPPRLPRPRPRPLDEPRP | -0.396
RRIRNRPPRLPRPRPRPDYIPRP | -0.104
RRIRLRPPRLPRPRPRPKAEPRP | 0.375
RRIRTRPPRLPRPRPRPNDYPRP | -0.523
RRIRMRPPRLPRPRPRPFFWPRP | 0.593
RRIRCRPPRLPRPRPRPTHDPRP | 0.302
RRIRCRPPRLPRPRPRPNTGPRP | -0.657

Sequence | shrunken log2 fold change
RRIRPRPPRLPRPRPRPYVGPRP | -0.157
RRIRDRPPRLPRPRPRPRPWPRP | 0.25
RRIRYRPPRLPRPRPRPCMYPRP | -0.101
RRIRMRPPRLPRPRPRPVLWPRP | 0.847
RRIRSRPPRLPRPRPRPFTQPRP | -0.403
RRIRERPPRLPRPRPRPNSTPRP | -0.495
RRIRTRPPRLPRPRPRPEWTPRP | 0.188
RRIRPRPPRLPRPRPRPRPKPRP | 3.22
RRIRYRPPRLPRPRPRPCHVPRP | -0.0447
RRIRFRPPRLPRPRPRPTVYPRP | -0.307
RRIRWRPPRLPRPRPRPLRYPRP | -0.0913
RRIRLRPPRLPRPRPRPERTPRP | 0.098
RRIRPRPPRLPRPRPRPDLSPRP | 0.158
RRIRFRPPRLPRPRPRPTQIPRP | 0.0911
RRIRSRPPRLPRPRPRPTEGPRP | 0.139
RRIRGRPPRLPRPRPRPVTNPRP | 0.735
RRIRRRPPRLPRPRPRPDFFPRP | -0.00974
RRIRIRPPRLPRPRPRPDKKPRP | -0.0638
RRIRRRPPRLPRPRPRPTRDPRP | 0.64
RRIRRRPPRLPRPRPRPDPCPRP | -0.00607
RRIRFRPPRLPRPRPRPHGNPRP | -0.414
RRIRWRPPRLPRPRPRPGPLPRP | 0.0252
RRIRYRPPRLPRPRPRPISRPRP | -0.113
RRIRFRPPRLPRPRPRPFKIPRP | -0.049
RRIRCRPPRLPRPRPRPQKRPRP | 0.0237

— the supplement of paper PMC9112550, “Optimization of the antimicrobial peptide Bac7 by deep mutational scanning” (BMC Biology, 2022)
